One block for each binder: values may come before it.
Columns and labels:
Settings in all cases: both partners purified
[1] = target: T1, His-L-TGF-β1 (N-terminal His tag followed by aa 30-390 of L-TGF-β1) (Homo sapiens (deposit 8C7H), UniProt P01137); assay: BLI; Abs (10 µg/ml) captured for 180 s on AMC or AHC (anti-murine or anti-human IgG Fc capture) tips; 10 µg/ml GARP, GARP/L-TGF-β or L-TGF-β in solution for 180 s, 600 s dissociation; PBS
T1 construct: latent TGF-β1 (LAP and mature TGF-β), aa 30-390; The introduction says that the proprotein is cleaved by a furin-like convertase into LAP and mTGF-β, which stay noncovalently associated; also called latent form of TGF-β; source: HEK293-E6, transiently transfected, purified from supernatant (Ni-NTA, SEC)

[2] = target: T2, GARP extracellular domain (aa 20-627), Fc-His part cleaved off (UniProt Q14392); assay: as above
T2 construct: GARP (LRRC32) extracellular domain, aa 20-627; also called LRRC32; GARP-Fc-His; source: HEK293-E6, transiently transfected, purified from supernatant (Ni-NTA, SEC; Fc-His removed with papain and protein A beads); not shown: Fc (human IgG1), C-terminal, cleaved; His tag, C-terminal, cleaved

[3] = target: T3, GARP/L-TGF-β complex (recombinant) (Homo sapiens (deposit 8C7H), UniProt Q14392;P01137); assay: cryo-EM structure; GARP/L-TGF-β incubated 30 min at 4°C with an excess of Fab, complex purified by SEC in 15 mM HEPES (pH 7.5), 100 mM NaCl; LHG-10 map 2.7 Å with atomic model; 28G11 map 7.5 Å with docked models of PDB 6GFF
T3 construct: GARP (LRRC32) extracellular domain, aa 20-627; latent TGF-β1 (LAP and mature TGF-β), aa 30-390; The introduction says that L-TGF-β is linked to GARP by two disulfide bonds and is cleaved into LAP and mTGF-β; also called L-TGF-β/GARP complex; GARP-Fc-His/L-TGF-β; source: HEK293-E6, transiently transfected, purified from supernatant (Ni-NTA, SEC; Fc-His removed with papain and protein A beads); not …

[4] = target: T4, L-TGF-β1 (aa 30-390), as it stands in the GARP/L-TGF-β complex (UniProt P01137); assay: as above
T4 construct: latent TGF-β1 (LAP and mature TGF-β), aa 30-390; Untagged construct, used only within the complex m3; The introduction says it is cleaved into LAP and mTGF-β; also called LAP and mTGF-β; source: HEK293-E6, transiently transfected, purified as the complex with GARP

[5] = target: T3, GARP/L-TGF-β complex (recombinant); assay: BLI; Abs (10 µg/ml) captured for 180 s on AMC or AHC (anti-murine or anti-human IgG Fc capture) tips; 10 µg/ml GARP, GARP/L-TGF-β or L-TGF-β in solution for 180 s, 600 s dissociation; PBS

T2 sequence (Q14392 20-627): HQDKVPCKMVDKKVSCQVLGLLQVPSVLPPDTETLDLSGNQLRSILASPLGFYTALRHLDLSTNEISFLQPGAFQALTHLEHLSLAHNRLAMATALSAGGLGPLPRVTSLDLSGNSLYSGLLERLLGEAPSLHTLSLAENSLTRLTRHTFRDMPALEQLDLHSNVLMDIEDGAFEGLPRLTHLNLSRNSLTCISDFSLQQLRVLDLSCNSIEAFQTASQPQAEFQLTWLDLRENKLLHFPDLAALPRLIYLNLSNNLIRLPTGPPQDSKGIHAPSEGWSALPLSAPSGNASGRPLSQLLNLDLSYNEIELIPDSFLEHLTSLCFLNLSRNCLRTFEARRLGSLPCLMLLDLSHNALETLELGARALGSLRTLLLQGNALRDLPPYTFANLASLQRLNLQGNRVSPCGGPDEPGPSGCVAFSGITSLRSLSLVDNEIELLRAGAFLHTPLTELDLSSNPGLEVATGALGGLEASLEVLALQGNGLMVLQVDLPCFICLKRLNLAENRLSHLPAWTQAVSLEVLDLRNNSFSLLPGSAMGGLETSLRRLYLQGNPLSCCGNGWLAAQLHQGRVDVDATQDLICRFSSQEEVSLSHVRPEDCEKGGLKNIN
T1 sequence (P01137 30-390): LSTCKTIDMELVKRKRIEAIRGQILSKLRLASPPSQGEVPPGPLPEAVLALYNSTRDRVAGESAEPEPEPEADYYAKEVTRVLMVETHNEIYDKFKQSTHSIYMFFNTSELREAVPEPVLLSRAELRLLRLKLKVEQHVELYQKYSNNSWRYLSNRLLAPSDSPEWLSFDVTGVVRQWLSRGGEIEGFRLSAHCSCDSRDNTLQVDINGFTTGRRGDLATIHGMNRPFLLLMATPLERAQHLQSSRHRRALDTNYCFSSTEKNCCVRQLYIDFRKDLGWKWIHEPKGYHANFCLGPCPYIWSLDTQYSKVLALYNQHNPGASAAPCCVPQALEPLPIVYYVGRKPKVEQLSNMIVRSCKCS
T4 sequence (P01137 30-390, one chain of several): as the sequence (P01137 30-390) above

binding result [1]: binds
binding result [2]: no binding (tested: 10 µg/ml)
B1: 28G11 (anti-L-TGF-β / anti-LAP Ab), full-length antibody (antibody, V domains shown)
VH: EVKLVESGGGLVQPGGSLSLSCAASGFTFTDYYMSWVRQPPGKALEWLGFIRNKPNGYTTEYSASVKGRFTISRDNSQSILYLQMNVLRAEDSATYYCARYTGGGYFDYWGQGTTLTVSS
VL: DIQMTQTTSSLSASLGDRLTISCRASQDISNYLNWYQQKPDGTVKLLIYYTSRLHSGVPSRFSGSGSGTDYSLTISNLEQADIATYFCQQGDTLPWTFGGGTKLEIK
notes: A cryo-EM map of its Fab complex is deposited in EMDB, without coordinates; source: HEK293-E6, transiently transfected, purified (protein A MabSelect SuRe)

stoichiometry N [3]: 1
binding result [4]: binds
B2: Fab 28G11 (Fab, V domains shown)
VH: B1 VH
VL: B1 VL
notes: Fab part of the heavy chain of m5; The cryo-EM map is deposited in EMDB, without coordinates; As the light chain of m5; source: HEK293-E6 antibody cleaved with immobilized papain, Fc removed with protein A beads

binding result [1]: no binding (tested: 10 µg/ml)
binding result [5]: binds
binding result [2]: no binding (tested: 10 µg/ml)
B3: LHG-10 (anti-L-TGF-β/GARP Ab), full-length antibody (antibody, V domains shown)
VH: EVQLVQPGAELRNSGASVKVSCKASGYRFTSYYIDWVRQAPGQGLEWMGRIDPEDGGTKYAQKFQGRVTFTADTSTSTAYVELSSLRSEDTAVYYCARNEWETVVVGDLMYEYEYWGQGTQVTVSS
VL: DIQMTQSPSSLSASLGDRVTITCQASQSISSYLAWYQQKPGQAPNILIYGASRLKTGVPSRFSGSGSGTSFTLTISGLEAEDAGTYYCQQYASVPVTFGQGTKVELK
notes: source: HEK293-E6, transiently transfected, purified (protein A MabSelect SuRe)

binding result [3]: binds
B4: Fab LHG-10 (Fab, V domains shown)
VH: B3 VH
VL: B3 VL
notes: Fab part of the heavy chain of m8; As the light chain of m8; source: HEK293-E6 antibody cleaved with immobilized papain, Fc removed with protein A beads

binding result [1]: no binding (tested: 10 µg/ml)
binding result [5]: binds
binding result [2]: no binding (tested: 10 µg/ml)
B5: MHG-8 (anti-L-TGF-β/GARP Ab), full-length antibody (antibody, V domains shown)
VH: QVQLKESGPGLVAPSQSLSITCTVSGFSLTGYGINWVRQPPGKGLEWLGMIWSDGSTDYNSVLTSRLRISKDNSNSQVFLKMNSLQVDDTARYYCARDRNYYDYDGAMDYWGQGTSVTVSS
VL: DIQVTQSSSYLSVSLGDRVTITCKASDHIKNWLAWYQQKPGIAPRLLVSGATSLEAGVPSRFSGSGSGKNFTLSITSLQTEDVATYYCQQYWSTPWTFGGGTTLEIR
notes: as for B3
